Data reported in FireProtDB (doi:10.1016/s0022-2836(03)00043-3).

Details: Homo sapiens; pH 8.5; 20 °C; Urea; CD; Tris 10 mM; reversible: yes; whole UniProt chain shown

B1: Cyclin-dependent kinase inhibitor 2A wild type, P42771 (protein)
chain: MEPAAGSSMEPSADWLATAAARGRVEEVRALLEAGALPNAPNSYGRRPIQVMMMGSARVAELLLLHGAEPNCADPATLTRPVHDAAREGFLDTLVVLHRAGARLDVRDAWGRLPVDLAEELGHRDVARYLRAAAGGTRGSNHARIDAAEGPSDIPD
For B1, the denaturant m value was 1.72 kcal/mol/M, the “denaturant midpoint (higher = more stable)” value was 2 M and the unfolding free energy was 3.34 kcal/mol.
